Data published in publication PMC5610175, “The Kinetochore Receptor for the Cohesin Loading Complex” (Cell, 2017).
Values belong to the molecule of their own block, whether it stands above or below them. Non-standard residues stand in square brackets, D forms with d. No end group written: not given here. pT = C[C@@H](OP(=O)(O)O)[C@H](N)C(=O)O; pS = N[C@@H](COP(=O)(O)O)C(=O)O

Key:
Scc2^1-181-Scc4 (WT) = target: T1, Scc2^1-181-Scc4 (WT) (Saccharomyces cerevisiae, UniProt P40090+Q04002); assay: Peptide binding to Scc2^1-181-Scc4 WT by biolayer interferometry; parameters: species or system budding yeast; details: Scc2^1–181-Scc4 WT, pH 7.5
T1 construct: made in house; host or cells: bacteria (E. coli is stated only for the Ctf19 complex proteins)
T1 sequence (P40090 1-624): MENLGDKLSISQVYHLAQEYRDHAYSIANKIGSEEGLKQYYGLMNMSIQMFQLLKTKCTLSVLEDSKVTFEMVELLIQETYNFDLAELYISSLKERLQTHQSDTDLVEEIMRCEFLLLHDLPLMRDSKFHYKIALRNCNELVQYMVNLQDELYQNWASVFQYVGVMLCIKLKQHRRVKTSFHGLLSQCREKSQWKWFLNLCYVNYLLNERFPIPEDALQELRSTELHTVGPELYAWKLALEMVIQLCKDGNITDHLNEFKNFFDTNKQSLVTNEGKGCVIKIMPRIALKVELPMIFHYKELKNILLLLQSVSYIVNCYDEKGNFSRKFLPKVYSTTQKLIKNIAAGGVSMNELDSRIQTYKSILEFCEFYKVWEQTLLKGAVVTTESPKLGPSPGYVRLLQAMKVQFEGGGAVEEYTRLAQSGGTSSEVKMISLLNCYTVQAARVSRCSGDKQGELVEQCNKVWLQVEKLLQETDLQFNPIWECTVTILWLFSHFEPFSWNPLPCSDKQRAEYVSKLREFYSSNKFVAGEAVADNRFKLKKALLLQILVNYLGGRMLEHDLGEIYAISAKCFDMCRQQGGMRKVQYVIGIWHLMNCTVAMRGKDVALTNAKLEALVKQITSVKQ
T1 sequence (Q04002 1-181 partner limits assumed): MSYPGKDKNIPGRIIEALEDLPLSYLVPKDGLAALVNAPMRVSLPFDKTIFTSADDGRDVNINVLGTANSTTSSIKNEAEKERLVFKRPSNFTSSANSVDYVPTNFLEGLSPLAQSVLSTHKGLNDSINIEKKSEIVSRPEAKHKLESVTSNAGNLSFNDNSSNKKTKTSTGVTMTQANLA
Method: Figure S5 Synthetic Ctf19^1–11 binds Scc2^1–181-Scc4, and Binding Requires Phosphorylation of Ctf19 Residue T4 or S5, Related to Figure 6 Experiments were carried out as in Figure 6B (error bars – +/−SD for three independent experiments, obscured by data points where not visible). m3 refers to immobilized Scc2^1-181-Scc4^m3. Ctf19 peptides and Scc2^1-181-Scc4 complexes used are listed in the table along with measured dissociation constants (Kd; SE – standard error for best-fit binding curve; single site, specific binding; Phos. – phosphorylated residues). TEXT PRINTED IN THE PICTURE: Ctf19 residues 1-11; Phos. none: Kd(±SE)(μM): n.d. (Scc2^1-181-Scc4: WT) | Ctf19 residues 1-11; Phos. pT4: Kd(±SE)(μM): 1757(6000+) (Scc2^1-181-Scc4: WT) | Ctf19 residues 1-11; Phos. pS5: Kd(±SE)(μM): 122(66) (Scc2^1-181-Scc4: WT); Kd(±SE)(μM): n.d. (Scc2^1-181-Scc4: m3) | Ctf19 residues 1-6; Phos. pT4;pS5: Kd(±SE)(μM): 22.6(3.0) (Scc2^1-181-Scc4: WT)
We used biolayer interferometry (ForteBio) to quantify the interaction between Scc2^1-181–Scc4 and synthetic peptides derived from the N-terminal region of Ctf19 (Tufts University Core Facility, Boston). For all steps, we used octet buffer (40mM HEPES, pH 7.5; 200mM NaCl; 1mM DTT) and low-volume 96-well opaque black plates. […] This step was allowed to reach saturation before a final incubation in octet buffer.
To derive binding curves, we first applied a linear correction so that all association steps began at zero response units. We then performed a linear drift correction by subtracting the signal for Scc2^1-181-Scc4 incubated in buffer alone during the association step (no peptide, linear subtraction for each time point, independent control for each experiment). We then applied a loading factor to correct for the Scc2^1-181-Scc4 immobilization efficiency for each well. From these normalized association curves, we extracted maximum responses for each well by averaging the signal across the final ten seconds of the association step. We performed these operations for three independent experiments, performed with new tips and samples, for each data point. […] Data points represent mean maximum responses, and error bars show the standard deviation for the three experiments. Fits were determined using GraphPad Prism software assuming a single specific binding site.

[1] = target: T2, Scc4, as in the crystallised Scc2^1–181-Scc4 complex (S. cerevisiae, UniProt P40090 1-624); assay: crystal structure; TEV-cleaved Scc2 1-181-Scc4 mixed with Ctf19 1-6 diphosphorylated peptide at 1:1.8; 8% PEG 4,000, 80mM PIPES pH 6, 18°C; space group P6_2, 3.19Å; details: both partners purified
T2 construct: Scc4, budding yeast cohesin loader subunit; Single chain of m8, for the pairs within the structure; not shown: 6His, N-terminal, cleaved
T2 sequence: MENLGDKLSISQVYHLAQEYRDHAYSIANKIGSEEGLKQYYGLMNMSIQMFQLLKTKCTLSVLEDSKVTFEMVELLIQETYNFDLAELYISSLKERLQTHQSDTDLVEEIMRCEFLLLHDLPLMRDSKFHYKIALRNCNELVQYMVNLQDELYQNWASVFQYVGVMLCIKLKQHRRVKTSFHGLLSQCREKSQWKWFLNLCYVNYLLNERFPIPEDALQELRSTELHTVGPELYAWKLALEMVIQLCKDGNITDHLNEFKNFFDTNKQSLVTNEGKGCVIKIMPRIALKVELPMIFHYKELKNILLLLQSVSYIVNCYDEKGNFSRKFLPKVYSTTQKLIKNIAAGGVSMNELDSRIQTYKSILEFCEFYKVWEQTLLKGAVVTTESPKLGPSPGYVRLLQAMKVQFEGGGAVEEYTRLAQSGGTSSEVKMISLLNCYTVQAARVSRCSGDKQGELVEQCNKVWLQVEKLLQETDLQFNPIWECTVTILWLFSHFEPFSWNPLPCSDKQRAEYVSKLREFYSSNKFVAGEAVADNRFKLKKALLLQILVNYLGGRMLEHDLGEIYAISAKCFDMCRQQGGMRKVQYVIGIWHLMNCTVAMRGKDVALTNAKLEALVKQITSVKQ

[2] = target: T3, Scc2^1–181-Scc4 complex, wild type, tagged (6His-FLAG-Scc2 1-181; 6His-Scc4) (S. cerevisiae, UniProt Q04002 1-181; P40090 1-624); assay: BLI; phosphorylated S5
T3 chain 1: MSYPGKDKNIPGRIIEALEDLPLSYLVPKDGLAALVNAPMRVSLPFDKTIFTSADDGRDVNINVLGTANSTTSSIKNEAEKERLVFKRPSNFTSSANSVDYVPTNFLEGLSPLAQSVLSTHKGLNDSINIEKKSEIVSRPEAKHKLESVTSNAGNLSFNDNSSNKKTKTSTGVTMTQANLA
T3 chain 2: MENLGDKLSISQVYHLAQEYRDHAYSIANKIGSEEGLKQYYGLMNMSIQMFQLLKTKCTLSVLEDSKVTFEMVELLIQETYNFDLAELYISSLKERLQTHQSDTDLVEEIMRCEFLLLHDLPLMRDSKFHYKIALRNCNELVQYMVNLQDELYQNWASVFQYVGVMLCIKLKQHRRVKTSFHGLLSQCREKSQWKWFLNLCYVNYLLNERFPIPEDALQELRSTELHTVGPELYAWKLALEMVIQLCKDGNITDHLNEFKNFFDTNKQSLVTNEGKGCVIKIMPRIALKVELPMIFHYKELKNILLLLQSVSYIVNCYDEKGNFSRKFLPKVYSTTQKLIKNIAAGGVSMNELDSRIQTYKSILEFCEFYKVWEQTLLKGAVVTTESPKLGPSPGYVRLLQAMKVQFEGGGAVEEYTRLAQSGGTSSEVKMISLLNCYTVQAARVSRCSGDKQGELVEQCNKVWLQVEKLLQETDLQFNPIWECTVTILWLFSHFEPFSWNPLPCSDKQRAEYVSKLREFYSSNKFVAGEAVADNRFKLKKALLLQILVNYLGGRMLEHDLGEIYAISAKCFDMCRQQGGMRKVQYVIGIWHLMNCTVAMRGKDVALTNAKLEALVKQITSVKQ

[3] = target: T3, Scc2^1–181-Scc4 complex, wild type, …; assay: BLI; phosphorylated T4; SE 6000+
[4] = target: T4, Scc2^1–181-Scc4 complex, wild type, tagged (6His-FLAG-Scc2 1-181; 6His-Scc4) (S. cerevisiae, UniProt Q04002 1-181; P40090 1-624); assay: BLI; ForteBio; 6His-tagged Scc2 1-181-Scc4 captured on NiNTA tips, Ctf19 peptides in solution at varying concentrations; 40mM HEPES pH 7.5, 200mM NaCl, 1mM DTT; steady-state responses, single specific site fit (Prism); three independent experiments; details: both partners purified
T4 construct: Scc4, budding yeast cohesin loader subunit; source: recombinant, expressed in bacteria, purified; not shown: 6His, N-terminal, kept; FLAG, N-terminal, kept
T4 sequence 1: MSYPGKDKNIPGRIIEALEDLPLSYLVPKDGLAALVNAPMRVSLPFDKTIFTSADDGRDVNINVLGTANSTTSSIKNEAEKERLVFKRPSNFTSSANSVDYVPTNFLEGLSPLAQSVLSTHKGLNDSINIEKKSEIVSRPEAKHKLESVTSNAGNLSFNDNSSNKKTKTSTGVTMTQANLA
T4 sequence 2: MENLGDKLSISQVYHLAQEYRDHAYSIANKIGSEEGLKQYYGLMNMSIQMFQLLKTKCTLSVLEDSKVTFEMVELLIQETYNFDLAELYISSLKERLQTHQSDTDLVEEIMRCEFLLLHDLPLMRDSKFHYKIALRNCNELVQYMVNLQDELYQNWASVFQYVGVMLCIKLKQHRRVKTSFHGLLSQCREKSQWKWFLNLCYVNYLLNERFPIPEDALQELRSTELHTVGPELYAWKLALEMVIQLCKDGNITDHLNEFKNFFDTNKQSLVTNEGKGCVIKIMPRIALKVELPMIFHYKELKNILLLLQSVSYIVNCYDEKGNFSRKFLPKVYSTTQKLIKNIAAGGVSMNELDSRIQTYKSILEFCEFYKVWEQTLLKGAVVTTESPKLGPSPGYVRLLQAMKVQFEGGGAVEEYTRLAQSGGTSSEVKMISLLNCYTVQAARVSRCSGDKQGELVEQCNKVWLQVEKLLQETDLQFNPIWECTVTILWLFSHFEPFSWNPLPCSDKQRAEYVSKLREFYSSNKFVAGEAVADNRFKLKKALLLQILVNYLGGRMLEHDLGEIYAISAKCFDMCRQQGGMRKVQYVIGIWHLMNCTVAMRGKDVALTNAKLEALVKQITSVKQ

binding to Scc2^1–181-Scc4 in vitro (in words) (Scc2^1-181-Scc4 (WT)): detectable binding
Molecule: MDFpTSDTTNSH [Ctf19 residues 1-11; Phos. pT4, synthetic Ctf19^1–11 peptide phosphorylated at T4]

binding result [1]: binds
B1: Scc2^1–181, as in the crystallised Scc2^1–181-Scc4 complex (domain or fragment, S. cerevisiae, UniProt Q04002 1-181, looked up)
chain: MSYPGKDKNIPGRIIEALEDLPLSYLVPKDGLAALVNAPMRVSLPFDKTIFTSADDGRDVNINVLGTANSTTSSIKNEAEKERLVFKRPSNFTSSANSVDYVPTNFLEGLSPLAQSVLSTHKGLNDSINIEKKSEIVSRPEAKHKLESVTSNAGNLSFNDNSSNKKTKTSTGVTMTQANLA
notes: Single chain of m8, for the pairs within the structure; also called Scc2n; source: recombinant, purified with Scc4, tags cleaved with TEV protease; not shown: 6His, N-terminal, cleaved

Kd [2]: 122 µM
Molecule: MDFT[pS]DTTNSH [Synthetic Ctf19^1–11 peptide phosphorylated at S5 (MDFTpSDTTNSH)]

Kd [3]: 1.76 mM
Molecule: MDF[pT]SDTTNSH [Synthetic Ctf19^1–11 peptide phosphorylated at T4 (MDFpTSDTTNSH)]

Kd [4]: ~23 µM
B2: Synthetic Ctf19^1–6 peptide phosphorylated at T4 and S5 (MDFpTpSD) (peptide)
peptide: MDF[pT][pS]D
notes: Ctf19 residues 1-6, budding yeast; also called phosphorylated Ctf19^1–6; Ctf19^1-6 diphosphorylated peptide; source: synthetic peptide (Tufts Univ. Core Facility)
